The results in this text go back to the supplement of paper PMC7877785.

± gives the uncertainty stated by the source.

The nature of this data set: self-splicing fitness, log relative to wild type (ln ratio); higher = more splicing; Tetrahymena group I intron in knt gene, E. coli kanamycin selection, DiMSum; sequences stand for … in CUCUCU…GGAGGGAAAAGUUAUCAGGCAUGCACCUGGUAGCUAGUCUUUAAACCAAUAGAUUGCAUCGGUUUAAAAGGCAAGACCGUCAAAUUGCGGGAAAGGGGUCAACAGCCGUUCAGUACCAAGUCUCAGGGGAAACUUUGAGAUGGCCUUGCAAAGGGUAUGGUAAUAAGCUGACGGACAUGGUCCUAACCACGCAGCCAAGUCCUAAGUCAACAGAUCUUCUGUUGAUAUGGAUGCAGUUCACAGACUAAAUGUCGGUCGGGGAAGAUGUAUUCUUCUCAUAAGAUAUAGUCGGACCUCUCCUUAAUGGGAGCUAGCGGAUGAAGUGAUGCAACACUGGAGCCGCUGGGAACUAAUUUGUAUGCGAAAGUAUAUUGAUUAGUUUUGGAGUACUCGUGGUCG
The gist of the method:
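Fitness was computed with DiMSum as the error-weighted combination of replicate fold changes, kanamycin versus none, each normalised to wild type. The library randomised all eight intron nucleotides of the P1ex region, with the intron placed in the knt kanamycin-resistance gene on pET-22b(+) in E. coli BL21(DE3). Six replicate transformations were grown overnight at 37°C or 30°C on LB agar with or without 25 μg/mL kanamycin, plus 100 μg/mL carbenicillin, 50 μM IPTG and 0.2% rhamnose. Pooled colonies were amplicon-sequenced on an Illumina HiSeq 2500.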

As for GCCUAGCAAUAUUACGGUUG, the “self-splicing fitness (ln)” value (30 °C) was -3.8 ± 0.14 and the “self-splicing fitness (ln)” value (37 °C) is -1.62 ± 0.11.

Regarding UGAGAGCAAUAUUACGGGCU, the “self-splicing fitness (ln)” value is -2.32 ± 0.37 (30 °C) and -2.6 ± 0.38 (37 °C).

As to UCACAGCAAUAUUACGCUCA, the “self-splicing fitness (ln)” value was -1.61 ± 0.14 (30 °C) and -0.171 ± 0.12 (37 °C). As for GUAAAGCAAUAUUACGUACU, the “self-splicing fitness (ln)” value is -1.01 ± 0.076 (30 °C) and -0.965 ± 0.13 (37 °C). Take GUAAAGCAAUAUUACGGAAC: the “self-splicing fitness (ln)” value reads like this: (30 °C) -1.56 ± 0.12; (37 °C) -1.57 ± 0.21. The matching figures for UAUCAGCAAUAUUACGCUGG: -3.15 ± 0.25 and -1.62 ± 0.21. Consider CUACAGCAAUAUUACGUUGC, for which the “self-splicing fitness (ln)” value is, setting by setting: (30 °C) -3.67 ± 0.23; (37 °C) -2.82 ± 0.21.

Regarding UCUUAGCAAUAUUACGUGUU, the “self-splicing fitness (ln)” value (30 °C) was -2.67 ± 0.15 and the “self-splicing fitness (ln)” value (37 °C) was -2.3 ± 0.25. The like results for UGGCAGCAAUAUUACGAACA were, in that order, -0.346 ± 0.11 and 0.139 ± 0.13.

With ACCGAGCAAUAUUACGCCUC, the “self-splicing fitness (ln)” value was -2.87 ± 0.19 (30 °C) and -2.36 ± 0.22 (37 °C). The like results for AAAGAGCAAUAUUACGCAUA were, in that order, -2.55 ± 0.23 and -1.42 ± 0.22.

As for CAACAGCAAUAUUACGUUUA, the “self-splicing fitness (ln)” value runs as follows: (30 °C) -1.62 ± 0.086; (37 °C) -0.887 ± 0.073. In the case of CACGAGCAAUAUUACGAAGC, where the note is “37 °C”, the “self-splicing fitness (ln)” value is -1.41 ± 0.26. CGGCAGCAAUAUUACGGCGU: the “self-splicing fitness (ln)” value by setting is: (30 °C) -1.6 ± 0.097; (37 °C) -0.949 ± 0.1. The like results for CGGUAGCAAUAUUACGAUCU were, in that order, -0.105 ± 0.081 and 0.492 ± 0.12. The matching figures for ACCGAGCAAUAUUACGACCU: -1.75 ± 0.11 and -0.53 ± 0.12. The like results for AUGAAGCAAUAUUACGCCCG were, in that order, -0.353 ± 0.25 and -0.729 ± 0.38.

On to CUAGAGCAAUAUUACGCGCA, for which the “self-splicing fitness (ln)” value is -1.95 ± 0.33 (30 °C) and -1.21 ± 0.35 (37 °C). The like results for CUUCAGCAAUAUUACGCCAG were, in that order, -0.975 ± 0.11 and -0.132 ± 0.17. The like results for UAUGAGCAAUAUUACGUCAG were, in that order, -2.82 ± 0.14 and -2.51 ± 0.2. The like results for CCCCAGCAAUAUUACGGAUU were, in that order, -4.3 ± 0.16 and -2.37 ± 0.13. On to UCAGAGCAAUAUUACGCGUG, for which the “self-splicing fitness (ln)” value is -2.31 ± 0.16 (30 °C) and -2.05 ± 0.15 (37 °C).

On to UGGCAGCAAUAUUACGGCAU, for which the “self-splicing fitness (ln)” value was -1.18 ± 0.083 (30 °C) and -0.388 ± 0.092 (37 °C).

For the sequence AGUAAGCAAUAUUACGUGUA, the “self-splicing fitness (ln)” value (30 °C) was -2.16 ± 0.12 and the “self-splicing fitness (ln)” value (37 °C) was -1.8 ± 0.13.

Consider UCGUAGCAAUAUUACGCCCU, for which the “self-splicing fitness (ln)” value was -1 ± 0.25 (30 °C) and -0.827 ± 0.34 (37 °C).

Consider CUCGAGCAAUAUUACGUUAC, for which the “self-splicing fitness (ln)” value (37 °C) is -2.22 ± 0.43. GGUAAGCAAUAUUACGGCUU: the “self-splicing fitness (ln)” value by setting is: (30 °C) -0.104 ± 0.075; (37 °C) 0.352 ± 0.11. The matching figures for ACUUAGCAAUAUUACGUGUC: -3.37 ± 0.16 and -2.7 ± 0.25. The matching figures for AUUGAGCAAUAUUACGGGCA: -2.81 ± 0.23 and -2.3 ± 0.29. The matching figures for AGGGAGCAAUAUUACGAGAU: -2.75 ± 0.29 and -3.06 ± 0.48. On to ACUUAGCAAUAUUACGGAGA, for which the “self-splicing fitness (ln)” value (30 °C) is -3.19 ± 0.28 and the “self-splicing fitness (ln)” value (37 °C) is -2.07 ± 0.2. The matching figures for GUCGAGCAAUAUUACGGGUU: -3.03 ± 0.2 and -1.04 ± 0.16. GAGCAGCAAUAUUACGGGUC: the “self-splicing fitness (ln)” value (30 °C) was -3.07 ± 0.18 and the “self-splicing fitness (ln)” value (37 °C) is -1.91 ± 0.17. For the sequence UCGGAGCAAUAUUACGUUAG, the “self-splicing fitness (ln)” value (37 °C) is -2.12 ± 0.22.
